Test results taken from the supplement of paper PMC7125110.
± gives the standard error. Variants at the floor of the assay were thinned out.

B1: glmS ribozyme (parent)
chain: AUAAAAGCGCCAGAACUACAGAAAUGUAGUUGACGAGGAGGAGGUUUAUCGAAUUUUCGGCGGAUGCCUCCAAA

Variants of: B1
Assay: self-cleavage kobs at 2500 uM GlcN6P; higher = faster cleavage; RNA array
Details: with glucosamine-6-phosphate
Method in brief: (§1)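 Tiles bearing barcoded ribozyme variants, transcribed in situ by E. coli RNA polymerase on sequenced MiSeq chips, were imaged over ~14 h at 37 °C using a hybridised Cy3 probe. Glucosamine-6-phosphate was supplied at 40 μM to 10 mM in HEPES/KCl/Mg(OAc)2 buffer. kobs came from one- or two-exponential decay fits to normalised per-tile medians, and weighted Michaelis–Menten fits then provided kcat and KM.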

Row | Variant | self-cleavage kobs at 2500 uM GlcN6P [s⁻¹]
1 | U45G U57A | 5.34e-05 ± 1.2e-05
2 | A33G G59C C68U | < 1e-05
3 | C34U G38U C50G | 0.000215 ± 5.7e-05
4 | A36U U57G A64G C67U | < 1e-05
5 | A42U U45A U49G | < 1e-05
6 | G32C A48U C68U | < 1e-05
7 | G38A A39U G43C A48U U55C C70A | < 1e-05
8 | U46C U47A U69A | 0.000198 ± 6.5e-05
9 | U45C U46C C70A | 0.000116 ± 4.4e-05
10 | G40A U56A C70G | 0.000135 ± 3e-05
11 | G35C G60U C67A | < 1e-05
12 | G35A G41A U54G | < 1e-05
13 | A33C U49G U69C | < 1e-05
14 | A39G G41U A42G | 0.000339 ± 9.9e-05
15 | A53C C61A G62U | < 1e-05
16 | A42G A52C A53G U54G | < 1e-05
17 | C34A G37U U46G U65G | < 1e-05
18 | U47G G62A C70G | 0.000139 ± 3.4e-05
19 | U45C C58U G59C | < 1e-05
20 | A39U U49A U56G | < 1e-05
21 | A33U C34U A39C | < 1e-05
22 | G38C U49C U57A U65G C70G | < 1e-05
23 | G40A G41C A42C U49C | < 1e-05
24 | C34A A39U G41A U54A | < 1e-05

Row | Variant | self-cleavage kobs at 2500 uM GlcN6P [s⁻¹]
25 | G43C G66U C67A | 0.000168 ± 5.2e-05
26 | U45C A52U C68U | < 1e-05
27 | C50A U56G C70A | 8.66e-05 ± 2.8e-05
28 | A33C G35U U57C | < 1e-05
29 | G37U G66U C68G C71G | 4.28e-05 ± 2e-05
30 | C34U G40C U56A G63A | < 1e-05
31 | G37U G44U C58A C71A | < 1e-05
32 | G41C U49A U65A | < 1e-05
33 | G35U A42U A64U | < 1e-05
34 | G38A G40A G44U G60C | < 1e-05
35 | C34G A39G G60U | < 1e-05
36 | A48C G51A C70G | < 1e-05
37 | U46G G66A C70A | 0.00045 ± 0.00016
38 | A52U U57A C71U | 0.000749 ± 0.00022
39 | A42U C61G U69G C70A | < 1e-05
40 | G44C U49A G60A G66U | < 1e-05
41 | A36G A48U A64C | < 1e-05
42 | A36G G40C G59U | < 1e-05
43 | G32A G43U G66A C68G | 0.00088 ± 0.0003
44 | U45C G60A G63C | < 1e-05
45 | U46A A52G G63U C67G | < 1e-05
46 | G41C G43C U55A U57G U69G | < 1e-05
47 | G35U A36G G63C | < 1e-05
48 | A42G A48U U54G | 0.000367 ± 0.0001

Row | Variant | self-cleavage kobs at 2500 uM GlcN6P [s⁻¹]
49 | G32C C50G C67G | 4.82e-05 ± 1.8e-05
50 | A39C G40A | 0.000126 ± 3.1e-05
51 | G44A G51U U57A | < 1e-05
52 | C50A U65G U69G C70A | 8e-05 ± 2.9e-05
53 | G44C A48G A53C G59U | < 1e-05
54 | G32C G41A G63A C70U | < 1e-05
55 | A33G A36U U65G | < 1e-05
56 | C34G G43C A53U U54A | < 1e-05
57 | G41U A42U A52G U56A | 3.73e-05 ± 1.2e-05
58 | G32C A39C C61G C70U | < 1e-05
59 | G37C A52G U56G | < 1e-05
60 | A36U G44C U46G | < 1e-05
61 | G41A U55A U57C A64U | < 1e-05
62 | A33C G37U A42G G44U A64G G66U | < 1e-05
63 | C50A U55A C70U | 5.24e-05 ± 2.1e-05
64 | A39G U57A | 0.000309 ± 7e-05
65 | A33U C34G A36U C67U | < 1e-05
66 | G37A G38A A39C | < 1e-05
67 | G40A G43C G60C C67U | < 1e-05
68 | G38C G59C C71G | < 1e-05
69 | G32C G38A U47A C58U A64C U69G | 0.000153 ± 4.8e-05
70 | G40U C61U U65A | < 1e-05
71 | G35C C50A A52U | < 1e-05
72 | A42G G43U G60U C61A | < 1e-05

Row | Variant | self-cleavage kobs at 2500 uM GlcN6P [s⁻¹]
73 | C34A G43A A64G | < 1e-05
74 | G40C A52G G60A | < 1e-05
75 | G40A U45C A53C | 3.19e-05 ± 1.5e-05
76 | G40U G66U C67U | < 1e-05
77 | A42C G51A A64U C68G | < 1e-05
78 | G44C C58G G63A C67G | < 1e-05
79 | U45G U46A G66U | 0.000166 ± 3.9e-05
80 | A42U C50U G51U U54C | < 1e-05
81 | A52C C58U G59U | < 1e-05
82 | U47A U56G C68A | 7.37e-05 ± 3.6e-05
83 | G37A A42U A52G C71A | < 1e-05
84 | U45A U54G C68G | 9.7e-05 ± 3.2e-05
85 | A42C U45C A48U C61A | < 1e-05
86 | C50U U55A C68G | 0.00018 ± 5.2e-05
87 | G40A A48U C58A G60A | < 1e-05
88 | C34G A42C A48G | < 1e-05
89 | C34A G38U G40A G44C U55C C70G | < 1e-05
90 | G35A C50A U57G | < 1e-05
91 | G40A G59C G63A C68A | < 1e-05
92 | G41U U55C C61G | < 1e-05
93 | C34U A39U G41C U69G | < 1e-05
94 | A36C A52G C61G | < 1e-05
95 | G43U C68A C70U C71A | 9.92e-05 ± 2.8e-05
96 | A36U U54G U57A | < 1e-05

Row | Variant | self-cleavage kobs at 2500 uM GlcN6P [s⁻¹]
97 | A42G G51U C67U | < 1e-05
98 | G32U G37U C58U | < 1e-05
99 | G32C A36U A53C | < 1e-05
100 | A33G U47A A52C C70A | < 1e-05
101 | A39G G43U U54C | 6.53e-05 ± 2.4e-05
102 | G35U A64G C71A | < 1e-05
103 | G51U A53G U69G | 4.29e-05 ± 2e-05
104 | G43C G51C G59U | < 1e-05
105 | U47A A48U U55A G60A | < 1e-05
106 | A36U G51U G63U | < 1e-05
107 | C34U U47A G59U A64C C70U | < 1e-05
108 | C50A C67A C70U | 0.000109 ± 3.7e-05
109 | A39U U47C U56A | 0.00121 ± 0.00039
110 | G43U G63U C68G | < 1e-05
111 | C34U G41A A52U | < 1e-05
112 | A42U G66A | 7.23e-05 ± 2.1e-05
113 | G51C G59A C71U | < 1e-05
114 | G35C A42U A48C G63U | < 1e-05
115 | A36C U54A C61A C67A | 6.51e-05 ± 2.2e-05
116 | G44C G62A C68G | < 1e-05
117 | U47G U57C C68A | 8.58e-05 ± 3.6e-05
118 | C34U G59A C71U | < 1e-05
119 | G40U C50G G62A | < 1e-05
120 | A33C G40A G43C A52C | < 1e-05

Row | Variant | self-cleavage kobs at 2500 uM GlcN6P [s⁻¹]
121 | G32U U46C C68A C71U | < 1e-05
122 | G32U U54C G59C C68U | < 1e-05
123 | U46C G60U G62U G63C | < 1e-05
124 | A48C U49C G59C | < 1e-05
125 | A36C G41C A42U U46C | < 1e-05
126 | A33U A42G C61A G66A | < 1e-05
127 | G43A A53U U56G G62U | < 1e-05
128 | G35U A48U U56G | < 1e-05
129 | C50U G60U A64C C70A | < 1e-05
130 | A52G C61A C67U | 0.000197 ± 7.1e-05
131 | A42U U54C C70A | 7.14e-05 ± 2.1e-05
132 | A33U G43U U54A G60A | < 1e-05
133 | G41C U47C C61G C67U | < 1e-05
134 | G38A G43U A48G C58G | < 1e-05
135 | G43A G66U C67U C71U | < 1e-05
136 | G32U U55G U56G | 0.000148 ± 4.3e-05
137 | A39C G60A C61A | < 1e-05
138 | A33C A53C C61G | < 1e-05
139 | A42G U45C C70U | 0.00265 ± 0.00085
140 | U45G U56G A64G | 0.00171 ± 0.00054
141 | A48U G60C G63C C71U | < 1e-05
142 | G37U G44U U54A | < 1e-05
143 | G40U U54G C68U | 0.000121 ± 4.4e-05
144 | C50A A53U C67U C68G | 4.54e-05 ± 2.1e-05

Row | Variant | self-cleavage kobs at 2500 uM GlcN6P [s⁻¹]
145 | G32C C50G U55A U56G U57C | 0.000162 ± 5.8e-05
146 | A39G A42U U55G U57C G62A | < 1e-05
147 | G40A U46G C67U | 0.000431 ± 0.0002
148 | A33G U47C C61G | < 1e-05
149 | A48U A53U U69C | 0.000134 ± 3.4e-05
150 | G32U A48C G51C | < 1e-05
151 | A52U A53U G62A U65G C71G | < 1e-05
152 | C50U A52C C58U | < 1e-05
153 | G40A A72C | 0.00214 ± 0.00067
154 | G41C G51C U56A G62A | < 1e-05
155 | A42U U45C U55A | 6.42e-05 ± 1.1e-05
156 | C34A G35U U55G | < 1e-05
157 | G38A C50G G59U C61A C67G | 8.22e-05 ± 2.2e-05
158 | A33G A42G A52G G60C | < 1e-05
159 | C34G A36U G40A A64C C71G | < 1e-05
160 | A36G C58U G59U A64G | < 1e-05
161 | G32C U54C | 1.41e-05 ± 5.6e-06
162 | G41C U45A U56G C67G C70G | 0.00118 ± 0.00023
163 | G43A G44C U54G | < 1e-05
164 | G43C C58G | < 1e-05

Variants of: B1
Assay: self-cleavage kobs at 10000 uM GlcN6P; higher = faster cleavage; RNA array
Details: with glucosamine-6-phosphate
Method in brief: as §1

Row | Variant | self-cleavage kobs at 10000 uM GlcN6P [s⁻¹]
165 | U45G U57A | 9.86e-05 ± 1.3e-05
166 | A36U U57G A64G C67U | < 1e-05
167 | A39U U49A U56G | < 1e-05
168 | G41C U49A U65A | < 1e-05
169 | A52U U57A C71U | 0.00177 ± 0.00039
170 | G44A G51U U57A | < 1e-05
171 | A39G U57A | 0.000335 ± 6.1e-05
172 | G40A G43C G60C C67U | < 1e-05
173 | A42U G66A | 0.000114 ± 2.5e-05
174 | A36C G41C A42U U46C | < 1e-05
175 | G32U U55G U56G | 0.000376 ± 8.4e-05
176 | A42G U45C C70U | 0.00197 ± 0.00052
177 | G32C U54C | 8.23e-05 ± 1.2e-05
